Experiments:
[1] = target: γ-Resorcylate decarboxylase (γ-RSD) from Polaromonas sp. JS666, His6-tagged (Polaromonas sp. JS666); assay: crystal structure
purified protein [2] = substrate: Cc1cc(O)c(C(=O)O)c(O)c1; assay: purified protein; assay type: biochemical, Polaromonas sp. JS666; conditions: 50 mM HEPES pH 7.0, 30 °C
purified protein [3] = substrate: O=C(O)c1c(O)cccc1O; assay: purified protein; assay type: biochemical, Polaromonas sp. JS666; conditions: 50 mM HEPES pH 7.0, 30 °C
purified protein [4] = substrate: O=C(O)c1cccc(O)c1O; assay: purified protein; assay type: biochemical, Polaromonas sp. JS666; conditions: 50 mM HEPES pH 7.0, 30 °C
purified protein [5] = substrate: O=C(O)c1c(O)cc(O)cc1O; assay: purified protein; assay type: biochemical, Polaromonas sp. JS666; conditions: 50 mM HEPES pH 7.0, 30 °C

stoichiometry N [1]	Molecule	Km (purified protein [2]) [µM]	kcat (purified protein [2]) [s⁻¹]	kcat/Km (purified protein [2]) [M⁻¹ s⁻¹]	Km (purified protein [3]) [µM]	kcat (purified protein [3]) [s⁻¹]	kcat/Km (purified protein [3]) [M⁻¹ s⁻¹]	Km (purified protein [4]) [µM]	kcat (purified protein [4]) [s⁻¹]	kcat/Km (purified protein [4]) [M⁻¹ s⁻¹]	Km (purified protein [5]) [µM]	kcat (purified protein [5]) [s⁻¹]	kcat/Km (purified protein [5]) [M⁻¹ s⁻¹]
4	γ-Resorcylate decarboxylase (γ-RSD) from Polaromonas sp. JS666, His6-tagged (enzyme)	–	–	–	–	–	–	–	–	–	–	–	–
–	γ-RSD (γ-resorcylate decarboxylase) (Polaromonas sp. JS666) (protein) MNGKIALEEHFATEETLMDSAGFVPDKDWPELRSRLLDIQDRRVRLMDEHGIETMILSLNAPAVQAIADSTRANETARRANDFLAEQVAKQPTRFRGFAALPMQDPELAARELERCVKELGFVGALVNGFSQDNRSAVPLYYDMAQYWPFWETVQALDVPFYLHPRNPLPSDARIYDGHAWLLGPTWAFGQETAVHALRLMGSGLFDKYPALKIILGHMGEGLPYSMWRIDHRNAWIKTTPKYPAKRKIVDYFNENFYLTTSGNFRTQTLIDAILEIGADRILFSTDWPFENIDHAADWFENTSISEADRKKIGWGNAQNLFKLNR	79 ± 6	0.38 ± 0.01	4800 ± 400	32 ± 2	0.44 ± 0.01	13000 ± 1000	111 ± 11	0.47 ± 0.02	4200 ± 500	48 ± 1	0.18 ± 0.01	3800 ± 300
